# Results published in patent US20250026814A1.
# Values joined by “and” are separate entries in the source; they are usually repeats but may differ in a detail not shown here. Equal entries are not always repeated.
# Molecular target: spike BA.1 antigens
# Experiment: ELISA (AUC)
binder,measurement,value
"S626-161 (antibody, V domains shown) VH: QLQLQESGPGLVKPSETLSLTCTVSGGSISSNNYYWGWIRQPPGKGLEWIGSIYYSGSTYYNPSLKSRVTMSVDTSKNQFSLKLSSVTAADTAVYHCARQGPNYYDRSGYYYVGPFDIWGQGTMVTVSS VL: QSVLTQPPSVSAAPGQKVTISCSGSSSNIGNNSVSWYQHLPGTAPKLLIYENNERPSGIPDRFSGSKSGTSATLGITGLQTGDEADYYCETWDRSLSASFGTGTKVTVL",fold reduced binding,1.7 fold and 3.9 fold
